Assay results published in the supplement of paper PMC10126150.
± gives the standard deviation of the averaged measurements.

system: ATP; assay: switch fluorescence ratio, 500 uM ATP over buffer (Cy3 cluster intensity, sum of 5 cycles each) (fold (ratio)); higher = stronger signal-on switching upon ATP binding; sequences stand for … in TCGTCGGCAGCGTCAGATGTGTATAAGAGACAGTTTTTTTTTTTTTTTTTTTTTTTTT…TC; conditions: aptamer strand: ATP DNA aptamer (quencher-CACCTGGGGGAGTATTGCGGAGGAAGG + anchor), 100 nM annealed; ATP concentration: 500 uM
Method in brief: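 Clusters carrying Cy3-labelled switching strands on a modified Illumina MiSeq flow-cell were annealed to 100 nM quencher-labelled ATP aptamer and imaged in selection buffer. They were imaged again after 15 min with 500 uM ATP at 22 °C, over five buffer/ATP cycles with NaOH stripping and re-annealing in between. For each cluster, the fluorescence ratio is the summed Cy3 intensity of the target cycles divided by that of the buffer cycles, averaged per switch-domain sequence. Clusters outside 100-1000 RFU were left out.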
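Further: ATP exposure 15 min at 22 °C before imaging.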

| Sequence | switch fluorescence ratio |
| --- | --- |
| CAGGTCACTG | 0.965 ± 0.044 |
| CAGGTCATGC | 1.02 ± 0.058 |
| CAGGTCGTTT | 1.032 ± 0.0069 |
| CAGGTCTTAA | 0.9719 ± 0.0054 |
| CAGGTGACGC | 1.07 ± 0.014 |
| CAGGTGGGGC | 1.02 ± 0.035 |
| CAGGTGGGTC | 1.02 ± 0.018 |
| CAGGTTAATG | 1.0027 ± 0.00049 |
| CAGGTTGATG | 1.01 ± 0.032 |
| CAGGTTGCCT | 0.999 ± 0.046 |
| CAGGTTGGGG | 1.03 ± 0.054 |
| CAGGTTGTGG | 0.992 ± 0.024 |
| CAGGTTTTTT | 0.989 ± 0.019 |
| CAGTAATATT | 1.06 ± 0.017 |
| CAGTAGAGGG | 0.977 ± 0.028 |
| CAGTAGCGG | 1.14 ± 0.018 |
| CAGTAGGGTC | 0.997 ± 0.014 |
| CAGTAGGTCT | 1.01 ± 0.027 |
| CAGTAGTTTT | 1 ± 0.017 |
| CAGTATATTG | 0.995 ± 0.025 |
| CAGTATTTCC | 1.05 ± 0.043 |
| CAGTCAGGGC | 1.26 ± 0.21 |
| CAGTCATATT | 1.02 ± 0.034 |
| CAGTCGAGTT | 1.003 ± 0.0076 |
| CAGTCGGTCA | 1.01 ± 0.032 |

| Sequence | switch fluorescence ratio |
| --- | --- |
| CAGTCGGTGG | 1 ± 0.031 |
| CAGTCGTGGA | 0.969 ± 0.016 |
| CAGTCTATCA | 0.972 ± 0.029 |
| CAGTCTATCG | 1.01 ± 0.021 |
| CAGTCTGCAG | 0.991 ± 0.031 |
| CAGTCTGGTG | 1.01 ± 0.025 |
| CAGTGAATGA | 1.03 ± 0.017 |
| CAGTGAGATG | 1.03 ± 0.019 |
| CAGTGAGCTC | 0.981 ± 0.022 |
| CAGTGAGGTT | 1.02 ± 0.031 |
| CAGTGCCAGC | 0.999 ± 0.035 |
| CAGTGTGAAG | 0.958 ± 0.016 |
| CAGTGTGGTC | 0.979 ± 0.055 |
| CAGTTACGAC | 1.13 ± 0.055 |
| CAGTTAGTGT | 1.001 ± 0.00021 |
| CAGTTATGCC | 0.988 ± 0.077 |
| CAGTTCCATG | 0.9857 ± 0.0091 |
| CAGTTCGGGA | 0.989 ± 0.02 |
| CAGTTGGATT | 1.01 ± 0.04 |
| CAGTTGGTC | 0.995 ± 0.037 |
| CAGTTTCAGG | 0.966 ± 0.043 |
| CAGTTTCCTC | 1.08 ± 0.015 |
| CAGTTTGACC | 0.987 ± 0.048 |
| CAGTTTTCCC | 1.01 ± 0.016 |
| CAGTTTTCTT | 1.01 ± 0.062 |

| Sequence | switch fluorescence ratio |
| --- | --- |
| CAGTTTTTTC | 1.005 ± 0.0054 |
| CATAACGTTA | 1.032 ± 0.0071 |
| CATAAGGTAT | 0.999 ± 0.046 |
| CATAATCCGA | 1.048 ± 0.0029 |
| CATAATCCGG | 0.9679 ± 0.0022 |
| CATAATGGTC | 0.986 ± 0.041 |
| CATAATTGGG | 0.995 ± 0.028 |
| CATAATTGTA | 0.979 ± 0.019 |
| CATACAATAT | 1.109 ± 0.0014 |
| CATACTTTGG | 1.01 ± 0.016 |
| CATAGGCTAC | 1.6 ± 0.031 |
| CATAGGGCTT | 0.963 ± 0.025 |
| CATAGGTTCT | 0.986 ± 0.023 |
| CATAGGTTGC | 0.983 ± 0.041 |
| CATAGTGATC | 1.051 ± 0.0011 |
| CATATAAACT | 1.039 ± 0.0047 |
| CATATATGTC | 1 ± 0.056 |
| CATATCTAGG | 0.997 ± 0.025 |
| CATATCTGAC | 1.16 ± 0.056 |
| CATATCTGAT | 1.01 ± 0.041 |
| CATATCTGTT | 1.02 ± 0.024 |
| CATATGCGTC | 1.02 ± 0.035 |
| CATATGCTGC | 1.0589 ± 0.00039 |
| CATATGTTAG | 1 ± 0.038 |
| CATATTCGCT | 1.01 ± 0.016 |

| Sequence | switch fluorescence ratio |
| --- | --- |
| CATATTTCCA | 0.99 ± 0.02 |
| CATATTTCGG | 0.995 ± 0.03 |
| CATATTTT | 0.971 ± 0.047 |
| CATATTTTTA | 1.04 ± 0.05 |
| CATCAGGCAC | 1.2 ± 0.023 |
| CATCATCTTG | 1 ± 0.062 |
| CATCATGTAC | 1.33 ± 0.059 |
| CATCCGAGGT | 1.14 ± 0.23 |
| CATCCGTGGG | 1.75 ± 0.085 |
| CATCCTTTAA | 1.007 ± 0.0082 |
| CATCGATTGT | 1 ± 0.019 |
| CATCGCGGAC | 3.88 ± 0.45 |
| CATCGGATAT | 1.04 ± 0.052 |
| CATCGGCAAG | 5.75 ± 1.3 |
| CATCGTATGG | 0.954 ± 0.022 |
| CATCTCAGTG | 1.03 ± 0.015 |
| CATCTGGCTT | 1.0536 ± 0.00031 |
| CATCTGTGCG | 1.02 ± 0.016 |
| CATGAAGGGG | 1.02 ± 0.015 |
| CATGAATGGA | 1.01 ± 0.017 |
| CATGACTAGA | 0.981 ± 0.014 |
| CATGAGAGGT | 1 ± 0.018 |
| CATGAGATAC | 1.16 ± 0.022 |
| CATGAGATTG | 0.971 ± 0.029 |
| CATGAGGGAG | 0.996 ± 0.019 |
